Results on one molecule are retold here after patent US20150203548A1 (GOVERNMENT OF THE UNITED STATES OF AMERICA AS REPRESENTED …, published 2015).

The test concerns the target T1, Staphylococcal Enterotoxin B (SEB) (UniProt P01552 28-266).
T1 sequence: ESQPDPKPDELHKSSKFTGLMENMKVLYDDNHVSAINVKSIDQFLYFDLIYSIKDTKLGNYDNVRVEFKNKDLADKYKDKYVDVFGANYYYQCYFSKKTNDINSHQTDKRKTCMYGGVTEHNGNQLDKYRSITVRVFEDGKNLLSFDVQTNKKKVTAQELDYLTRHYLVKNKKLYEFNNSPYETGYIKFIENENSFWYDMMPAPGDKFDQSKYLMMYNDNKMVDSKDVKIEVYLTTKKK
As to the kind of experiment: SPR on SEB-coated chip.

B1: sdAb A3 lacking the disulfide (A3-ds) (VHH)
VHH: EVQLVESGGGLVQAGDSLRLSATASGRTFSRAVMGWFRQAPGKEREFVAAISAAPGTAYYAFYADSVRGRFSISADSAKNTVYLQMNSLKPEDTAVYYVAADLKMQVAAYMNQRSVDYWGQGTQVTVSSAAALEHHHHHH
On to B1, for which the binding result is listed as “binds”.
